From PMC6925194

B1: ASCT2 (Alanine, Serine, Cysteine Transporter 2; SLC1A5): N163H (protein)
parent chain: MVADPPRDSKGLAAAEPTANGGLALASIEDQGAAAGGYCGSRDQVRRCLRANLLVLLTVVAVVAGVALGLGVSGAGGALALGPERLSAFVFPGELLLRLLRMIILPLVVCSLIGGAASLDPGALGRLGAWALLFFLVTTLLASALGVGLALALQPGAASAAINASVGAAGSAENAPSKEVLDSFLDLARNIFPSNLVSAAFRSYSTTYEERNITGTRVKVPVGQEVEGMNILGLVVFAIVFGVALRKLGPEGELLIRFFNSFNEATMVLVSWIMWYAPVGIMFLVAGKIVEMEDVGLLFARLGKYILCCLLGHAIHGLLVLPLIYFLFTRKNPYRFLWGIVTPLATAFGTSSSSATLPLMMKCVEENNGVAKHISRFILPIGATVNMDGAALFQCVAAVFIAQLSQQSLDFVKIITILVTATASSVGAAGIPAGGVLTLAIILEAVNLPVDHISLILAVDWLVDRSCTVLNVEGDALGAGLLQNYVDRTESRSTEPELIQVKSELPLDPLPVPTEEGNPLLKHYRGPAGDATVASEKESVM
B2: ASCT2 (Alanine, Serine, Cysteine Transporter 2; SLC1A5): N212H (protein)
parent chain: MVADPPRDSKGLAAAEPTANGGLALASIEDQGAAAGGYCGSRDQVRRCLRANLLVLLTVVAVVAGVALGLGVSGAGGALALGPERLSAFVFPGELLLRLLRMIILPLVVCSLIGGAASLDPGALGRLGAWALLFFLVTTLLASALGVGLALALQPGAASAAINASVGAAGSAENAPSKEVLDSFLDLARNIFPSNLVSAAFRSYSTTYEERNITGTRVKVPVGQEVEGMNILGLVVFAIVFGVALRKLGPEGELLIRFFNSFNEATMVLVSWIMWYAPVGIMFLVAGKIVEMEDVGLLFARLGKYILCCLLGHAIHGLLVLPLIYFLFTRKNPYRFLWGIVTPLATAFGTSSSSATLPLMMKCVEENNGVAKHISRFILPIGATVNMDGAALFQCVAAVFIAQLSQQSLDFVKIITILVTATASSVGAAGIPAGGVLTLAIILEAVNLPVDHISLILAVDWLVDRSCTVLNVEGDALGAGLLQNYVDRTESRSTEPELIQVKSELPLDPLPVPTEEGNPLLKHYRGPAGDATVASEKESVM
B3: ASCT2 (Alanine, Serine, Cysteine Transporter 2; SLC1A5): N163H/N212H (protein)
parent chain: MVADPPRDSKGLAAAEPTANGGLALASIEDQGAAAGGYCGSRDQVRRCLRANLLVLLTVVAVVAGVALGLGVSGAGGALALGPERLSAFVFPGELLLRLLRMIILPLVVCSLIGGAASLDPGALGRLGAWALLFFLVTTLLASALGVGLALALQPGAASAAINASVGAAGSAENAPSKEVLDSFLDLARNIFPSNLVSAAFRSYSTTYEERNITGTRVKVPVGQEVEGMNILGLVVFAIVFGVALRKLGPEGELLIRFFNSFNEATMVLVSWIMWYAPVGIMFLVAGKIVEMEDVGLLFARLGKYILCCLLGHAIHGLLVLPLIYFLFTRKNPYRFLWGIVTPLATAFGTSSSSATLPLMMKCVEENNGVAKHISRFILPIGATVNMDGAALFQCVAAVFIAQLSQQSLDFVKIITILVTATASSVGAAGIPAGGVLTLAIILEAVNLPVDHISLILAVDWLVDRSCTVLNVEGDALGAGLLQNYVDRTESRSTEPELIQVKSELPLDPLPVPTEEGNPLLKHYRGPAGDATVASEKESVM

Experiment: CHO co-transfection, flow cytometry fusion index
Details: glycan lost; control: wild-type ASCT2
For B1, the “other: SYN1-induced cell-cell fusion” value was “no change”.
For B2, the “other: SYN1-induced cell-cell fusion” value was “no change”.
With B3 the “other: SYN1-induced cell-cell fusion” value was “no change”.
